This is an account of results in article PMC9170038, “Crowdsourced RNA design discovers diverse, reversible, efficient, self-contained molecular switches”.

Holding throughout (conditions): chain copies: 2; label: tethered by stalled RNA polymerase
For data set [1], the target named is T1, MS2 coat protein, dlFG mutant (Escherichia phage MS2, UniProt P03612, del68-81insG). The experiment in a line: 4 mM Mg2+; no ligand; RNA-MaP array; 100 mM Tris-HCl pH 7.5, 80 mM KCl, 4 mM MgCl2, 0.1 mg/mL BSA, 1 mM DTT, 0.01 mg/mL yeast tRNA, 0.01% Tween-20; protein 1.5 nM to 3 uM; 37 C (Table S3).
Data set [2] deals with T1, MS2 coat protein, dlFG mutant. Briefly: 4 mM Mg2+; miR-208a RNA 100 nM (AU…UUGU); RNA-MaP array; 100 mM Tris-HCl pH 7.5, 80 mM KCl, 4 mM MgCl2, 0.1 mg/mL BSA, 1 mM DTT, 0.01 mg/mL yeast tRNA, 0.01% Tween-20; protein 1.5 nM to 3 uM; 37 C (Table S3).
For data set [3] the target is unchanged. The experiment in a line: 4 mM Mg2+; theophylline 2 mM; RNA-MaP array; 100 mM Tris-HCl pH 7.5, 80 mM KCl, 4 mM MgCl2, 0.1 mg/mL BSA, 1 mM DTT, 0.01 mg/mL yeast tRNA, 0.01% Tween-20; protein 1.5 nM to 3 uM; 37 C (Table S3).
For data set [4] the target is unchanged. The experiment in a line: 4 mM Mg2+; FMN 200 uM; RNA-MaP array; 100 mM Tris-HCl pH 7.5, 80 mM KCl, 4 mM MgCl2, 0.1 mg/mL BSA, 1 mM DTT, 0.01 mg/mL yeast tRNA, 0.01% Tween-20; protein 1.5 nM to 3 uM; 37 C (Table S3).
For data set [5] the target is unchanged. Briefly: 4 mM Mg2+; L-tryptophan 2.4 mM; RNA-MaP array; 100 mM Tris-HCl pH 7.5, 80 mM KCl, 4 mM MgCl2, 0.1 mg/mL BSA, 1 mM DTT, 0.01 mg/mL yeast tRNA, 0.01% Tween-20; protein 1.5 nM to 3 uM; 37 C (Table S3).

B1: Eterna 7699730 (Exclusion - Theophylline A) (ssRNA)
RNA: AGAAACUUGUAUGUCGGCCCUGCGCGCGAUACCAGCCAAAUGGAUGGCCCUUGGCAGCGCAGCGAGUGAUGUUCGCCCGGCUGAC
As usually defined, the Kd is a measure of binding affinity in units of concentration. With B1, the Kd in data set [1] was above 3000 nM.

B2: Eterna 13246 (Sensor for hsa-mir-208a) (ssRNA)
RNA: UGGAUCUAGGCUUGCCUGGGUCCAUGUUGACAUGAGGAUCACCCAUGUGUAUUUUAUAAGCUUUUUGUUUGUCAACA
B2 came in with a Kd in data set [2] of 13.4 nM.

B3: Eterna 7682723 (Same State - Arginine A) (ssRNA)
RNA: AAAUUCUUUUUUUUAUUUAACUUUUCAGAAGGAGCGUGGUAGUUCACAGGUAGGUCGCUGAAUUUUGGACUAGUGAUGUUAGUUA
As for B3, in data set [1], the Kd was above 3000 nM.

B4: Eterna 10216 (Sensor for hsa-mir-208a) (ssRNA)
RNA: CUCAAAACAAGUUGCAGUGUUCGUCUUUAACAUGAGGAUCACCCAUGUAAUAACCCAGUGGAAGCGCUCGGGCCACC
In data set [2], B4 came in with an equilibrium dissociation constant (Kd) of 21.1 nM.

B5: Eterna 7639274 (Exclusion - Theophylline B) (ssRNA)
RNA: UUAUUUAUAAUGGAUACCAGUGCUGUGGCCCGGCAUCCUGACAUGAGGAUCACCCAUGUGUACCCUUGGCAGCUGUUAUGGGUUU
B5 displayed a Kd in data set [3] of 24.2 nM.

B6: Eterna 6082084 (Exclusion 3) (ssRNA)
RNA: AACACGUGAGGAUAUACAUGAGGAUCACCCAUGUUGGUACAAUCCUGUCCGACUAUCCGUAGAAGGCAUUGACU
In the case of B6, the dissociation constant Kd in data set [4] came to 34.1 nM.

B7: Eterna 7730854 (Same State - Tryptophan A) (ssRNA)
RNA: UACAUGAGGAUCACCCAUGUCCCAUGUGAACGAGGACCGGUACGGCCGCCACUCGACCGAGGCGGCACAUGAGGAUCACCCGCAU
The molecule B7 gave a Kd in data set [5] of 1580 nM.

B8: Eterna 11880 (Sensor v3, turn-off variant 2) (ssRNA)
RNA: AGAAAUGCCCAUGGCCGCAAGCUUUUCGCUUGUCUUACCACAUGAGGAUCACCCAUGUGACAUGGGCUCCUUAUAAU
In data set [2], B8 had a Kd of 10.7 nM.

B9: Eterna 7683541 (Same State - FMN B) (ssRNA)
RNA: UAUUAAUUGUCAGGAUAUCGUAAACGAGUGAUGUUCGUAUAUCGACGAUAGUCGAUUCUAUCUAAACGAGAAGGGACAUUAUUUA
In data set [1], B9 showed a Kd above 3000 nM.

B10: Eterna 7627711 (Same State - Tryptophan B) (ssRNA)
RNA: GGUUACUCUACGGCCGCCACUGAUUAAUUAUAAUCCUGUACAUAAACAUGAGGAUCACCCAUGUACAGGACCGGGUAGUGUAACC
B10: in data set [5], the Kd worked out at 29.1 nM.

B11: Eterna 5811984 (Exclusion 6) (ssRNA)
RNA: CUUAGUAUCUAGGAUAUCUAGUACAUAGUAUCUAGAGAAGGAGAUACAUGAGGAUCACCCAUGUUCUGUGUUCU
As for B11, the Kd in data set [4] was 65.6 nM.

B12: Eterna 1142 (Exclusion - Theophylline A) (ssRNA)
RNA: UGCAUCAGUGCCUUUGAUCUAUUCCUGGAUACCAGAUCCUACUUGAUCCCUUGGCAGCCAUACGGGAGUGAUGUUCCAUGUAUCC
As to B12, the dissociation constant Kd in data set [1] is above 3000 nM.
